This note sets out measurements from patent US20180246080A1, “METHODS USING AXL AS A BIOMARKER OF EPITHELIAL-TO-MESENCHYMAL TRANSITION” (BERGEN TEKNOLOGIOVERFORING AS, priority 2009, published 2018).

For one data set, the system named is MDA-MB-231/GFP-Luc cells. The data set is described as follows: Tissue engineered tricellular tumor implants (MDA-MB-231, EC, SMC) in scaffolds. The data set is classed as in vivo, NOD-SCID mice. The text has this: 1×10^6 MDA-MB 231 cells which express GFP-Luc biomarker and different RNAs interference that regulate Axl expression, were suspended in a 1:1 mixture of F-12 Kaighn's (Invitrogen) :Matrigel (BD Biosciences) and seeded in 6×6 mm Poly-lactic acid (PLLA) scaffolds.
Females NOD/SCID/B2mnull were anesthetized by exposure to 1-2% isoflurane (Isoba vet.-Schering-Plough A/S) during the implantation procedure and on subsequent imaging days. Two scaffolds were implanted subcutaneously (s.c) in each mouse according to Nor et al. Lab Invest.; 81 (4) 453; 2001 Scaffolds with cells that express Axl were implanted on the left side of each mouse while on the right side scaffolds with cells in which Axl was knockdown. After the surgical procedure, anesthetized mice were placed in Imaging System and imaged for both left and right sides 10-15 min after intraperitoneal injection of 150 mg/kg D-luciferin (Biosynth). Tumor development was monitored in vivo once a week by imaging for 4 weeks.
For tricellular implant MDA-MB-231 cells infected with shRNA vectors and GFP-Luc were mixed with Human dermal microvascular endothelial cells (HMVEC), and pulmonary artery smooth muscle cells (PASMC) in ratio of 1:2:2. Tumor growth was monitored weekly in vivo by imaging for 4 consecutive weeks.
To ascertain whether Axl influences the ability of breast cancer cells to attract and co-opt blood vessels, we developed a tri-cellular implant approach comprising MB-MDA-231 cells seeded together with primary human microvascular endothelial (HuMVEC) and vascular smooth muscle cells (vSMC) to create tumor vasculature. Implants of human EC-vSMC cells readily form perfused intrascaffold human microvasculature in NOD-SCID mice within a two-week period (Hegen et al., in preparation). […] The engineered human tumor vasculature is evenly distributed and perfused with intralumenal red blood cells. In contrast, Axl knockdown, blocked tumor formation, without affecting development of a perfused human microvasculature.

The next data set deals with MDA-MB-231-D3H2LN cells. Description: Mammary fat pad spontaneous metastasis model, bioluminescence imaging. The data set is classed as in vivo, NOD-SCID mice. As to the method: BLI was performed using a eXplore Optix (GE Healtcare) camera mounted in a specimen box. Imaging and quantification of signals was done using eXplore Optix software. For in vivo imaging, animals received via intraperitoneal injection (i.p) the substrate D-luciferin (Biosynth), 150 mg/kg in PBS (Phosphate Buffered Saline) and anesthetized with isoflurane. Mice were placed into warmed stage inside of camera box with continuous exposure to 1-2% isoflurane and imaged for different views depending on the tumor model. Region of interest were identified and were quantified as total photon/sec-1 using eXplore Optix software (GE Explore Optix). In vivo background bioluminescence was in the range of 2-3×10 photon counts. […]
Subline of human MDA-MB-231 cells (called MDA-MB 231 DH3L2N—Xenogen) which express GFP-Luc biomarker and different RNAs interference that regulate Axl expression were injected into mammary pad of mice. […] Tumor growth and metastasis spread was monitored every second week by bioluminescent imaging for up to 9 weeks. […]
In order to evaluate the requirement of Axl for breast cancer metastasis, we orthotopically injected MDA-MB-231-D3H2LN, a rapidly growing and highly metastatic in vivo MDA-231 isolate, into the mammary fat pad. Using whole body bioluminescent imaging we temporally monitored spontaneous metastasis development over a 9-week period. […]

The subject of a further data set is mouse Axl. The data set is described as follows: Flow cytometry of mouse Axl surface expression in 4T1-GFP-Luc cells. The data set is classed as cell-based. To be noted: 4T1 cells, retroviral shRNA expression. As to the method: (§1) The MDA-MB-231 cells were trypsinated using standard procedures and washed in PBS-0.2% BSA before staining with anti-Axl (#MAB154, R&D Systems) at a final concentration of […] in PBS-0.2% BSA for 40 minutes at room temperature. Cells were washed twice in PBS-0.2% BSA) and incubated with secondary antibody (Goat anti-mouse APC (Allophyocyanin, crosslinked, Molecular Probes) at a final concentration of 0.2 mg/ml for 30 minutes at room temperature in the dark. Cells were washed twice with PBS-2% BSA and resuspended in […] PBS-0.2% BSA before analysis on a FacsCalibur Flow Cytometer (BD Biosciences). Data analyses were carried out using the FlowJo software (Tree Star, Inc., Ashland, Oreg., USA).
In order to validate our results in a different metastatic model we transduced the highly metastatic mouse breast carcinoma 4T1 cell line with the CSI-construct and selected for GFPluciferase expression by FACS (4T1-GFP-Luc). […] A mismatched human Axl-targeting shRNA (shAxl279) had no effect on mouse Axl expression.
A general note: A flow cytometer gives signals particle by particle.

Another data set has as its system Axl. The data set is described as follows: FACS analysis of Axl expression in epi-allelic MDA-MB-231 cell series. In kind it is cell-based, human. As to conditions: MDA-MB-231/GFP-Luc cells.
Source text: All shRNAs were expressed from a modified human U6 promoter in the LTR of the retroviral vectors RRI-Red/L087 (Genbank: EU424173) used to transform MDA-MB-231 cells via retroviral infection. RRI-Red also expresses Puro2AmRed1 resulting in puromycin resistance and red fluorescence in successfully transformed cells. All Axl cDNA nucleotides are numbered as in Genbank: BC032229.
as §1, with “Data analyses were carried out using the FlowJo software (Tree Star, Inc., Ashland, Oreg., USA).” left out
The strong correlation of Axl expression in early breast carcinomas with poor survival indicates an important role for Axl in overall disease pathogenesis. As breast cancer-related mortality invariably results from complications of metastatic disease, we assessed whether Axl expression was required for malignant breast carcinoma cell invasiveness. […]

B1: shAxl2: human Axl-targeting shRNA, SEQ ID NO: 1, expressed from retroviral vector (nucleic acid, listed as Homo sapiens)
chain: GACATCCTCTTTCTCCTGCGAAGCCCATCTGGTCATGGGCTTCGCAGGAGAAAGAGGATGTC
Take B1: in the data set on MDA-MB-231/GFP-Luc cells (excised tumors, 28 days), the Intrascaffold vessel diameter entry is recorded as “unaffected” and the Microvascular density result is reported as “slightly enhanced”. The “Tissue engineered tumor growth” value in the data set with MDA-MB-231/GFP-Luc cells (tricellular implants, in vivo imaging) was “inhibited”. Also, in the data set with MDA-MB-231-D3H2LN cells (orthotopically injected MDA-MB-231-D3H2LN/GFP-Luc cells, P=0.013 log-rank test vs control), the Overall survival entry is “significantly increased”. Further, the Spontaneous metastasis result in the data set with MDA-MB-231-D3H2LN cells (whole body bioluminescent imaging over 9 weeks) is listed as “no metastases were detected”.

B2: shAxl279: ineffective human Axl-targeting shRNA, SEQ ID NO: 3, used as control (nucleic acid, listed as Homo sapiens)
chain: GCTTCAGGCGATTTCCCCGGCGTTGGATCCCTGGTCGGATCCAACGCCGGGGAAATCGCCTGAAGC
As for B2, in the data set with mouse Axl, the “mouse Axl surface levels” value is “had no effect”. Further, the “Axl knockdown efficacy (Axl-targeting shRNA)” value in the data set with Axl is “ineffective”.
